Here are results for seven molecules from publication PMC3859071, “Development of a Multiplex Sandwich Aptamer Microarray for the Detection of VEGF165 and Thrombin”.

In data set [1] the target is T1, VEGF165 (human, UniProt P15692-4 27-191). Description: sandwich aptamer microarray; detected with VEa5-Cy5; EMSA: TBSE (0.05 mM EDTA, 10 mM Tris-HCl, 100 mM NaCl, pH 7; Vap7 folded with +100 mM KCl), 25 C, 30-60 min, 0.1 uM aptamer; 12% gel in 50 mM glycine pH 9.5 with or without 10 mM KCl. Microarray: TBSE, 25 C, 30 min, PBS washes. To be noted: protein: commercial; chain copies: 2.
T1 sequence (P15692 other isoform, or with tags, fused parts or gaps): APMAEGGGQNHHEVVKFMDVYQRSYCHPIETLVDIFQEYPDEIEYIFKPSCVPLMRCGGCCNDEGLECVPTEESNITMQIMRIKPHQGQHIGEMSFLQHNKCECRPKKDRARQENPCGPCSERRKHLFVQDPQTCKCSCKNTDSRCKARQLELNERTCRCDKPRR

Data set [2] has as its target T1, VEGF165. As to the kind of experiment: EMSA supershift; 10 uM VEGF165; ternary complex; EMSA: TBSE (0.05 mM EDTA, 10 mM Tris-HCl, 100 mM NaCl, pH 7; Vap7 folded with +100 mM KCl), 25 C, 30-60 min, 0.1 uM aptamer; 12% gel in 50 mM glycine pH 9.5 with or without 10 mM KCl. Microarray: TBSE, 25 C, 30 min, PBS washes. To be noted: protein: commercial; chain copies: 2; label: 5'-FAM on strand 2; two separate aptamers, not a duplex. On the technique in general: A gel shift assay detects complexes by their altered migration in electrophoresis.

The target in data set [3] is T1, VEGF165. As to the kind of experiment: EMSA; 5 uM VEGF165; two shifted bands; EMSA: TBSE (0.05 mM EDTA, 10 mM Tris-HCl, 100 mM NaCl, pH 7; Vap7 folded with +100 mM KCl), 25 C, 30-60 min, 0.1 uM aptamer; 12% gel in 50 mM glycine pH 9.5 with or without 10 mM KCl. Microarray: TBSE, 25 C, 30 min, PBS washes. Conditions: protein: commercial; chain copies: 2; label: 5'-FAM; G4.

For data set [4], the target named is T1, VEGF165. Description: EMSA; EMSA: TBSE (0.05 mM EDTA, 10 mM Tris-HCl, 100 mM NaCl, pH 7; Vap7 folded with +100 mM KCl), 25 C, 30-60 min, 0.1 uM aptamer; 12% gel in 50 mM glycine pH 9.5 with or without 10 mM KCl. Microarray: TBSE, 25 C, 30 min, PBS washes. Conditions: protein: commercial; chain copies: 2; three stem-loops (predicted).
Data set [5] concerns the target T1, VEGF165. As to the kind of experiment: EMSA; 5 uM VEGF165; EMSA: TBSE (0.05 mM EDTA, 10 mM Tris-HCl, 100 mM NaCl, pH 7; Vap7 folded with +100 mM KCl), 25 C, 30-60 min, 0.1 uM aptamer; 12% gel in 50 mM glycine pH 9.5 with or without 10 mM KCl. Microarray: TBSE, 25 C, 30 min, PBS washes. To be noted: protein: commercial; chain copies: 2; label: 5'-FAM; three stem-loops (predicted).

Data set [6] has as its target T1, VEGF165. As to the kind of experiment: EMSA; 100 mM KCl; EMSA: TBSE (0.05 mM EDTA, 10 mM Tris-HCl, 100 mM NaCl, pH 7; Vap7 folded with +100 mM KCl), 25 C, 30-60 min, 0.1 uM aptamer; 12% gel in 50 mM glycine pH 9.5 with or without 10 mM KCl. Microarray: TBSE, 25 C, 30 min, PBS washes. To be noted: protein: commercial; chain copies: 2; G4.

Consider TCACGCTTATTTAAGAAGCTGTTTGGTGGAGG (ssDNA, 5'-amino) [Random DNA-NH2], for which the binding result in the data set with VEGF165 [1] is reported as “no binding”.

B1: VEa5-NH2 + Vap7-FAM (mixed)
DNA 1: ATACCAGTCTATTCAATTGGGCCCGTCCGTATGGTGGGTGTGCTGGCCAGATAGTATGTGCAATCA
DNA 2: ATACCAGTCTATTCAATTGCACTCTGTGGGGGTGGACGGGCCGGGTAGA
modifications: 5'-amino on strand 1
As to B1, in the data set with VEGF165 [2], the binding result was “binds”. As to ATACCAGTCTATTCAATTGCACTCTGTGGGGGTGGACGGGCCGGGTAGA (structured_DNA) [Vap7-FAM], in the data set with VEGF165 [3], the binding result is “binds”.

B2: VEa5 (structured_DNA)
DNA: ATACCAGTCTATTCAATTGGGCCCGTCCGTATGGTGGGTGTGCTGGCCAGATAGTATGTGCAATCA
In the case of B2, the binding result with VEGF165 [4] is given as “binds”.

B3: Vap7-NH2 + VEa5-FAM (mixed)
DNA 1: ATACCAGTCTATTCAATTGCACTCTGTGGGGGTGGACGGGCCGGGTAGA
DNA 2: ATACCAGTCTATTCAATTGGGCCCGTCCGTATGGTGGGTGTGCTGGCCAGATAGTATGTGCAATCA
modifications: 5'-amino on strand 1
For the molecule B3, in the data set with VEGF165 [2], the binding result is “binds”.

B4: VEa5-FAM (structured_DNA)
DNA: ATACCAGTCTATTCAATTGGGCCCGTCCGTATGGTGGGTGTGCTGGCCAGATAGTATGTGCAATCA
Regarding B4, the binding result in the data set with VEGF165 [5] was “binds”. As to ATACCAGTCTATTCAATTGCACTCTGTGGGGGTGGACGGGCCGGGTAGA (structured_DNA) [Vap7], in the data set with VEGF165 [6], the binding result is recorded as “binds”.
